# Results reported in publication doi:10.1101/2024.06.23.600241 (bioRxiv, 2024).
# T1: PvDBP-RII subdomain 3 (Plasmodium vivax, UniProt P22290 211-508)
# T1 chain: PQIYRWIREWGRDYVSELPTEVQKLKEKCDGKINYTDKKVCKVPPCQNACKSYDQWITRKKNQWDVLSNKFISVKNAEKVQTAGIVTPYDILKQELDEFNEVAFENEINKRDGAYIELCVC
# T2: Plasmodium vivax Duffy binding protein region II (PvDBP-RII) (Plasmodium vivax, UniProt P22290 211-508)
# T2 chain: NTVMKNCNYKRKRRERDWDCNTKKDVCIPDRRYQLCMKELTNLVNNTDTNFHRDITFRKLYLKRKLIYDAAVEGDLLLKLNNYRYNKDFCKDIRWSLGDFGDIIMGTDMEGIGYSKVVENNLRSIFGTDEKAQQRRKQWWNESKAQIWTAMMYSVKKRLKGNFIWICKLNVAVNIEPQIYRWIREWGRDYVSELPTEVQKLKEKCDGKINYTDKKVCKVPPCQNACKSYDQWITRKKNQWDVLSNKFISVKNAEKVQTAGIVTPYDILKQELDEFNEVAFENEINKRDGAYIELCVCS
# Experiments:
# PvDBP-RII subdomain 3 [1] = target: T3, PvDBP-RII subdomain 3 (Plasmodium vivax Salvador I, UniProt P22290); test: SPR; Biacore T200; DB9 captured on a CM5 chip amine-coupled with protein A/G; analytes flowed in a two-fold dilution series from 1 μM; 20mM HEPES pH 7.4, 150mM NaCl, 0.005% Tween-20; details: both partners purified
# T3 construct: also called SD3; not shown: His-tag, N-terminal, cleaved
# [2] = target: T4, Plasmodium vivax Duffy binding protein region II (PvDBP-RII) (Plasmodium vivax Salvador I (strain as …, UniProt P22290)); test: as above; details: both partners purified
# T4 construct: The tag and its TEV cleavage hold only if the pET15b construct was the one used; SalI is named only for the transgenic parasites; also called RII region of PvDBP; source: the same paragraph also says cloned into modified pET15b, expressed in E. coli BL21-DE3; not shown: His-tag, N-terminal, cleaved
# PvDBP-RII subdomain 3 [3] = target: T1, PvDBP-RII subdomain 3; test: SPR
# [4] = target: T2, Plasmodium vivax Duffy binding protein …; test: SPR
binder,measurement,setting,value
"monoclonal antibody DB9 (antibody, V domains shown, the Fab part of the heavy chain is in PDB 6R2S and PDB 9EZE; the light chain is in PDB 6R2S and PDB 9EZE) VH: EVQLQESGPGLVKPSETLSLTCTVSGGSVSSSTYYWGWVRQPPGKGLEWIGSIYYSGSTYYNPSLKSRVTISVDTSKNQFSLKLSSVTAADTAVYYCARDGTGALDLWGRGTLVTVSS VL: DIVMTQSPSTLSASVGDRVTITCRASQSISSWLAWYQQRPGKAPRLLIYKASSLLSGVPSRFGGSGSGTDFTLTISSLQPDDFATYHCQHYNTYPWTFGQGTKVEIK",Kd,PvDBP-RII subdomain 3 [1],1.11 nM
same,Kd,[2],2.63 nM
same,koff,PvDBP-RII subdomain 3 [3],0.00172 s⁻¹
same,koff,[4],0.000976 s⁻¹
